In the nanobody polyreactivity screen of Harvey et al. (2022):

Assay: yeast display, Sf9 membrane polyspecificity reagent, FACS + sequencing; frameworks hold sequencing errors
Procedure, shortened: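 Nanobodies came from a synthetic yeast display library in Saccharomyces cerevisiae BJ5465, induced with galactose for 36–48 hours and stained for 1 hour at 4 °C with 10% biotinylated, detergent-solubilized Sf9 membrane reagent. Cells were enriched on streptavidin microbeads and then FACS-sorted, with low and high (top ~1%) gates set on anti-HA fluorescence for expression and streptavidin fluorescence for reagent binding. Each polyreactivity label reflects the gate a clone came from. Genes were amplified by colony PCR, sequenced by MiSeq 2 × 250 and filtered by CDR length.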

Sequence	polyreactivity (PSR sort gate)
QDQLVESGGGLVQTGGSLRLSWAASGSTFYNTVMGWYRQAPGKERELVAAINSGGRTYYADSVKGRFTISRDNAKNTVYLQMNSLNPEDTAVYYCAVGYGRAARMDYWGQGTQVTVSS	high polyreactivity
QVQLVESGGGLVQAGGSLRLSCAASGSTVGHYAMGWYRQAPGKERELVAAISVSGGSTYYADSVKGRFTISRDHAKNTVYLQMNSLKPEDTAVYYCAREYAHLSFLSTSSDYWGQGTQVTVSS	low polyreactivity
QVQLVESGGGLVQAGGSLRLSCPASGSIFRGYGMGWSRQAPGKERELVAAMSSSGGTYYADSVKGRFTISRDNAKKTVYLQMNSLKPEDTAVYYCNARVRTQQRWVDYWGQGTQVTVSS	high polyreactivity
QVQLVESGGGLVQAGGSLRLSCAASGSIFSSNAMGWYRQAPGKERELVAAISSSGSRTYYADSVKGRFTISRDNAKNTVYLQMNSLKPEDTAVYYCAAVIRYTRSYDYWGQGTQVTVSS	high polyreactivity
QVQLVESGGGLVQAGGSLRLSCAASGFTFSLYAMGWYRQAPGKERELVASISRSGGSTYYADSVKGRFTISRDNAKNTVYLQMNSLKPEDTAVYYCAARWRPYKYDSWGQGTQVTVSS	high polyreactivity
QVQLVESGGGLVQAGGSLRLSCAASGYTLRPNGMGWYRQAPGKERELVAAISSGGSTYYADSVKGRFTISRDNAKNTVYLQMISLKPEDTAVYYCAAEYWYDYWGQGTQVTVSS	low polyreactivity
QVQLVESGGGLVQAGGSLRLSCAASGSTFYPYAMGWYRQAPGKERELVAAISSRDGRTYYADSVKGRFTISRDNAKNTVYLQMNSLKPEDTAVYYCAASSFNNGHRYDYWGQGTQVTVSS	high polyreactivity
QVQLVESGGGLGQAGGSLRLSCAASGLIFVRNDMGWYRQAPGKERELVADISDGSTYADSVKGRFTISRDNAKNTVYLQMNSLKPEDTAVYYCNKDNHDVELPVEFEYWGQGTHVTVSS	high polyreactivity
QVQLVESGGGLVQAGGSLRLSCAASGLIFSWYAMGWYRQAPGKERELVAAISSGSSTNYADSVKGRFTISRDNAKNTVYLQRNSLKPEDTAVYYCAARIYYTSRLRMYYWGQGTQVTVSS	high polyreactivity
QVQLVESGGGLVQAGGSLRLSCAASGSIFKNYAMGWSRQSPGKERELVASITTGASTNYADSVKGRFTISRDNAKNTVYLQMNSLKPEDTAVYYCNADRYYSHYSYYYWGQGTQVTVSS	high polyreactivity
QVQLVESGGGLVQAGGSLRLSCAASGRIFLRYAMGWYRQAPGKERELVAVITWSGGSTNYADSVKGRFTISRDNAKNTVYLQMNSLKPEDTAVYYCAVDNSGRSWPYDYWGQGTQVTVSS	low polyreactivity
PVQLVESGGGLGQAGGSLSLRCAASGSIFTYYAMVWYRQAPGKERELVADISNSGSTYYADSVNGRFTISRDNAKNTVYLQMNRLKPEDSAVSSCNAEYHDLYDYWGQGTQVTVSS	low polyreactivity
QVQLVESGGGLVQAGGSLRLSCAASGSTFVYYAMGWSRQAPGKERELVAAIKRSGTRTYYADSVKGRFTISRDNAKNTVYLQMNSLKPEDTAVYYCANAVQGKYGYWGQGTQVTVSS	high polyreactivity
QVQLVESGGGLVQAGGSLRLSCAASGFTFYQYTMGRYRQAPGKERELVATITSDGGTNYADSVKGRFTISRDNAKNTVYLQMNSLKPEDTAVYYCARDYLSPYAVDYWGQGTQVTVSS	low polyreactivity
QVQLVDSGAGLVQAGGSLRIICAASVRTFPRNAMGWYRQAPGKEMEMVAAITGSGGSTYYADSVKGRFTISRDNAKNTVYLQMNSLKPEDTAVYYCAARGPSRRRDGSDYWGQGTQVTVSS	high polyreactivity
QVQLVESGGGLVQAGGSLRLSCAASGSTFWPYTMGWYSQAPGKERELVAAISLSGGSTYYADSVKGRFTISRDIAKNTVYLQMNSLKPEDTAVYYCAAEGGYQNWHYLYDYWGQGTQVTVSS	low polyreactivity
QVQLVESGGGLVQAGGSLRLSCAASGSIFNINAMGWYRQAPGKESELVATITSGGTTSYADSVKGRFTISRDNAKNTVYLQMNSLKPEDTAVYYCNAEIYPIVKAGLQHPRRYDYWGQGTQVTVSS	low polyreactivity
QVQLVESGGGLVQAGGSLRLSCAASGNIFTRNAMGWYRQAPGKVRELVASITRGGSTYADSVKGLFTISRDNAKNTVYLQMNSLKPEDTAVYYCAASCYYSSHMDYWGQGTQVTVSS	high polyreactivity
QVQLVESGGGLVQAGGSLRLRCAASGRTLGRYAMGWYRQAPGKDRELVAAIRIGGGSTYYADSVKGRFTISRDNAKNTVYLQMISLKPEDTAVYYCATRGYINGAGFGYWGQGTQVTVSS	high polyreactivity
QVQLLDSGGGLVQAGGSLSLSCAASGSSFRYYAMGWYRPAPRKEREFVADISWSGSSTYYADSVKGRFTISRDNSKITVYLLMNSLTPEDTAVYYCAARYRYRSSSYDYWGQGTQVTVSS	high polyreactivity
QVQLVESGGGLVQAGGSLRLSCAASGYIFDRNAMGWYRQAPGKERELVAAITKRGGITYYADSVKGRFTISRDNAKNTVYLQMNSLKPEDTAVFYWNALARSSRYDYWGQGTQVTVSS	high polyreactivity
QVQLVESWGGLVQAGGSLRLSCAASGSTFDRYAMGWYRQAPGKERELVAAISGSAGRTYYADSVKGRFTISRENAKNTVYLQMNTLKPEDTAVYFCAAVQIVSGNYDYYWGQGTQVTVSS	low polyreactivity

Sequence	polyreactivity (PSR sort gate)
QVQLEESGGGLVQAGGSLRLSCAASGSIFALYAMGWYRQAPGKERELVAAISYRGGRTYYADSVKARFTISRDYAKNTVYLQMNILKPEDTAVYYCATDFPCKFDFWGQGTQVTVSS	low polyreactivity
QVQLVESGGGLVQAGGSLRLSCAASGSIFAFYTMGWYRQAPGKERELVATITRSGRTNYADSVKGRFTISRDNAKNTVYLQMNSLKPEDTAVYYCAAGYLSGNYARYGYWGQGTQVTVSS	high polyreactivity
QVQLVESGGGLVQAGGSLRLSCAASGSTFGDNAMVWYRQAPGKERELVAAITFRDGITYYADSVKGRITISRDNAKNSVYLQMNSLKPEDTAFYYCAKGVHRRWYYGYGYWGQGTQVTVSS	high polyreactivity
QVQLVESGGGLVQAGGSLRLSCAASGRIFGYNAMGWYRQAPGKERELVAALSWNGGSTYYADSVKGRFTISRDNAKNTVYLQMNSLKPEDTAVYYCNADPSDRRYPHTWTKMGYWGQGTQVTVSS	low polyreactivity
QVQLVESGGGLVQAGGSLRLSCAASGSIFDGYAMGWYRQAPGKERELVAAISQRGGSTYYADSVKGRFTISRDNAKNTVYLQMNSLKPEDTAVYYCAADSSYGTREYWGQGTQVTVSS	low polyreactivity
QVQLVESGGGLVQAGGSLRLSCAASGYTFPSNAMGWYRQAPGKERELVAAISSGGRTNYADSVKGRFTISRDNAKNTVYLQMNSLKPEDTGVYYCNADGGPCYPRAYDYWGQGTQVTVSS	low polyreactivity
QVQLVESGGGLVQAGGSLRLSCAASGLTFYYYAMGWYRQAPGKERELVAAITWSGASTYYADSVKGRFTISRDNAKNTVYLQMNSLKPEDTAVYYCNARVWGGVEFGYWGQGTQVTVSS	high polyreactivity
QVQLVESGGGLVQAGGSLRLSCAASGSIFRGNAMGCYRQAPWKARELVAGINRAGSTKYADSVKGRFTISRDNAKNTVYVQMISLKQEDTEVYYCAAVRYERGLWSDYWGQGTQVTVSS	high polyreactivity
QVQLVESGGGLVQAGGSLRLSCAASGFIFQRYAMGCYRQAPGKERELVAAISKGGGNTYYADSVKGRFTISRDNAKKTVYLQMNSLKPEDTAVYYCNAVPRPDHDYWGQGTQVTVSS	high polyreactivity
QVQLVESGGGLVQAGGSLRLSCASSGSILVHYAMGRYRQAPGKERELFAAISRGGSTNYADSVKGRFTISRDNAKNTVYLQMNSLKPEDTAVYFCAARHGQSWQWLEYDYWGHGTQVTVSS	low polyreactivity
QVQLVESGGGLVQAGGSLRVSCAASGLTSIHYMGWYRQAPGKERELVATITSSTGSTYYADSVKGRFTISRDNAKNTVYLQMNSLKPEDTAVDYCAAESFGADGPYQPSYDYWGQGTQVTVSS	low polyreactivity
QVQLVESGGGLVQAGGSLRLSCAASGYTFSNNAMGWYRQAPGKERELFPTINSGGSTNYADSVKGRFTISRDNAKNTVYLQMNSLKPEDTAVYYCAAREDLYLYYNGQRVQYDYWGQGTQVTVSS	low polyreactivity
QVQLVESGGGLVQAGGSLRLSCAASGRTFTYYGMGWYRQAPGKERELVAAISGGGDTNYADSVKGRFTISRDNAKNTVYLQMNSLKPEDTAGYYCAAKRRYYWDYWFYEYDYWGQGTQVTVSS	low polyreactivity
QDQLVESGGGLVQAGASLRLICAASGFIFPSYAMGWYRKAPGKERELVAAISWTGGTYYADSVKGRFTISRDNAKNTVYLQMNSLKPEDTAVYYGAVRYKRKGSGYRTNAYDYWGQGTQVSVSS	high polyreactivity
QVQLVESGGGLVQAGGSLRLSCAASGSIFADNAMGWYRQAPGKEMELVADISWSGGRTYYADSVKGRFTISRDNAKNTVYLQMNSLKPEDTAVYYCAARYRDYRAGFDYWGQGTQLTVSS	high polyreactivity
QVQLVESGGGLVKAGGSLRLSCAASGSTFTYYAMGWYRQAPGKERELVARITWTGGRTYYADSVKGRFTISRGNAKNTVYLQMNSLKPEDTAVNYCNALPYFYETQYDYWGQGTQVTVSS	low polyreactivity
QVQLVESGGGLVQAGGSLRLSCAASGSTFHLYAMGWNRQAPGKEREFVAAIRGRGGNTYADSVKGRFTISRDNAKNSGYLQMNSLKPEDTAVYYCAARTHYDSDYWGQGTQVTVSS	low polyreactivity
QVQLVESGGGLLQAGCSLRISCAASGFIFYKYVMGWYRPAPGKERELVAAINWSGGSTYYADSVKGRFTISRDNAKNTVYLQMNSLKQEDTAVYYCNAARRSKGGLNDYYWGQGTQVTVSS	high polyreactivity
QVQLVESGGGLDQAGASLRLSCAASGRIYVVNAMGWYREAPGKEMELVATNTRSGGITFYPDSVKGRFTISRDNAKNTVYLQMNSLNPEVTAVYYCNADVLFYTYYTRGRFDFDYWGQGTQVTVSS	low polyreactivity
QVQLVESGGGLVQAGGSLRLSCAASGGTFYRNAMGWYRQAPGKERELVASISRTGGSTYYADSVKGRFTISRDIAKNTVYLQMNSLKPEDTAVYYCAKKQPRYSYFDNDYWGQGTQVTVSS	high polyreactivity
QVQLVESGGGLVQAGGSLRLSCAASGSIFFTNAMGWYRQAPGKERELVASITSSGGSTYYADSVKGRFTISRDNAKNTVYLQMNSLKPEDTAVYYCARDRWPFWYSPSGVYRYYYWGQGTQVTVSS	low polyreactivity
